Test results as given in US20240327518A1 (BETTA PHARMACEUTICALS, published 2024).

What was measured:
[1] = molecular target: T1, human PD-L1 on cells (human, UniProt Q9NZQ7 19-290); assay: cell-based or functional assay
[2] = molecular target: T2, Cynomolgus/Rhesus macaque PD-L1-hFc protein (ACRO Biosystems) (Cynomolgus/Rhesus macaque, UniProt G7PSE7 19-238); assay: ELISA, plate coated with Cynomolgus/Rhesus macaque PD-L1-hFc
T2 construct: Bought protein; also called Cyno PD-L1; cynomolgus monkey PD-L1
T2 sequence (G7PSE7 entry or part of it limits assumed, form in doubt): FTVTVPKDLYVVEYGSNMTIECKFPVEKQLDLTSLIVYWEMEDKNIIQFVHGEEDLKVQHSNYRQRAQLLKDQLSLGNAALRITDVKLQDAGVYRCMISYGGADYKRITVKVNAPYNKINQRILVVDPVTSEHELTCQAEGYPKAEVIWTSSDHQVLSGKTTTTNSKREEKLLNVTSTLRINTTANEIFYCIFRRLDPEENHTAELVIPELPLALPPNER
Protocol: (§1) A 96-well plate was coated with 1 μg/mL Cynomolgus/Rhesus macaque PD-L1-hFc protein (manufacturer: ACRO Biosystems) and incubated at 4° C. overnight. The plate was washed with wash buffer and then blocked with a PBS solution containing 2% BSA for 60 minutes. After a wash with wash buffer, different concentrations of the antibodies to be tested (the initial concentration was 100 nM, and 4-fold gradient dilution was performed) were added, and the plate was incubated at 37° C. for 120 minutes. The plate was washed with wash buffer, and an HRP-labeled goat anti-human secondary antibody (diluted at 1:10,000, manufacturer: Jackson) was then added. The plate was incubated at 37° C. for 60 minutes. The plate was washed with wash buffer, and TMB substrate solution was added at 100 μL/well. After 10-15 minutes of reaction at room temperature, 100 μL of 2 M hydrochloric acid stop solution was added to stop the reaction.

[3] = molecular target: PD-L1-Biotin (UniProt Q9NZQ7 19-238, limits assumed, biotin label (site not stated)); assay: competitive flow cytometry: antibody premixed with PD-L1-Biotin, blocking of binding to 293T-hPD1 cells
Chain of PD-L1-Biotin (Q9NZQ7 19-238 limits assumed): as the sequence (G7PSE7 entry or part of it limits assumed, form in doubt) above, with T33A, S34A, N62S, Q68R, R82Q, L173F, A185T, I192T, L215H counted along it
Protocol: The blocking of PD-L1 binding to its ligand PD-1 by the humanized antibodies was measured using a method based on competitive flow cytometry. 293T-hPD1 cells were added to a 96-well plate at 1×10⁵ cells/well. Different concentrations of the antibodies to be tested (the initial working concentration was 200 nM, and 4-fold dilution was performed) were mixed with a PD-L1-Biotin dilution (2 μg/mL, 50 μL/well), and the mixtures were incubated at room temperature for 30 minutes. Then the mixtures were added to the cells at 100 μL/well and well mixed. The plate was incubated at 4° C. for 60 minutes, and the blocking activity of the antibodies was measured using a PE fluorescently labeled streptavidin flow cytometry antibody. The mean fluorescence values were measured. Then antibody-antigen blocking reaction curves were generated using geometric values, and four-parameter plots were generated using the Graphpad Prism V6.0 software.

[4] = molecular target: T1, human PD-L1 on cells; assay: flow cytometry on MC38-hPD-L1 cells overexpressing human PD-L1
Protocol: The binding activity of the humanized antibodies to PD-L1 was measured by flow cytometry. An MC38-hPD-L1 cell line that overexpresses human PD-L1 (manufacturer: Kyinno Biotechnology (Beijing) Co., Ltd.) was thawed, and the cells were added to a 96-well plate at 1×10⁵ cells/well. Different concentrations of the antibodies to be tested (the initial concentration was 100 nM, and 5-fold gradient dilution was performed) were added, and the plate was incubated at 4° C. for 30 minutes. A fluorescently labeled goat anti-human IgG secondary antibody (manufacturer: abcam, catalog No. 98596) was then added to detect antibodies bound to the cell surfaces. Antibody-antigen binding dose response curves were generated using geometric values, and four-parameter raw data were plotted using the Graphpad Prism V6.0 software.

[5] = molecular target: T3, mouse PD-L1-hFc protein (ACRO Biosystems) (mouse, UniProt Q9EP73 19-238); assay: ELISA, plate coated with mouse PD-L1-hFc
T3 construct: Bought protein; not shown: human Fc (hFc)
T3 sequence (Q9EP73 19-238 limits assumed): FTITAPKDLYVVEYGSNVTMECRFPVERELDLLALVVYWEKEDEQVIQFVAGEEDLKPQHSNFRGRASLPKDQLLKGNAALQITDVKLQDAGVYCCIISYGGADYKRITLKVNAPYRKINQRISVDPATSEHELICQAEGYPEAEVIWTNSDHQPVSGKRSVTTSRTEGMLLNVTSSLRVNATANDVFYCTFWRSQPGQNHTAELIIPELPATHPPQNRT
Protocol: as §1, with “mouse” for “Cynomolgus/Rhesus macaque”, “and” for “and then”, “1:10,000)” for “1:10,000, manufacturer: Jackson)”, “reaction, and OD450 values were measured with a microplate reader.” for “reaction.”

[6] = molecular target: T1, human PD-L1 on cells; assay: competitive flow cytometry on 293T-PD-L1 cells, blocking of human-CD80-mFc binding
Protocol: The blocking of PD-L1 binding to CD-80 by the antibodies was measured using a competitive flow cytometry method. 293T-PD-L1 cells were added to a 96-well plate at 1×10⁵ cells/well. Antibody dilutions with different concentrations (the initial working concentration was 200 nM, and 4-fold dilution was performed) were added to the cells, and the plate was incubated at 4° C. for 30 minutes. After the incubation, the plate was washed with PBS containing 2% FBS and centrifuged at 1200 rpm for 4 minutes, and the supernatants were discarded. Then human-CD80-mFc (2 μg/mL, manufacturer: ACRO) was added at 100 μL/well, and the plate was incubated in the dark at 4° C. for 30 minutes. After the incubation, the plate was washed with PBS containing 2% FBS. A fluorescently labeled goat anti-mouse IgG secondary antibody diluted at 1:200 was added at 100 μL/well, and the plate was incubated in the dark at 4° C. for 30 minutes. After the incubation, the plate was washed with PBS containing 2% FBS and tested on a flow cytometer. The mean fluorescence values were measured.

T1 sequence (Q9NZQ7 19-290): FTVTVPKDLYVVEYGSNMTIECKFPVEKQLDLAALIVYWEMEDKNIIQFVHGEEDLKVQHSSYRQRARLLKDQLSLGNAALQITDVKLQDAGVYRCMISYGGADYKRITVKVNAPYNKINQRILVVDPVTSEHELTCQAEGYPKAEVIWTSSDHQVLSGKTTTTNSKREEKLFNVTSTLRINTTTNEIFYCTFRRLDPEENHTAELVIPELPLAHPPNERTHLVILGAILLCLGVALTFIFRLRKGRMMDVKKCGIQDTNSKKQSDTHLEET

Row | IC50 (nM), NFAT-luciferase reporter gene assay [1] | EC50 [2] | IC50 [3] | EC50 [4] | IC50 [6] | Binder | binding result [5]
1 | 0.305 nM | 0.034 nM |  |  |  | antibody 5 (VHH) VHH: QVQLVESGGGLVQAGGSLRLSCAASGRSFSSSGMGWFRQAPGKDREFVATINSSGGDTYYADSVEGRFTTSRDNAKNTMSLQMNDLKPEDTAVYYCAAKEGGGPSSIPAIFDYWGQGTQVTVSS | no binding (tested: initial concentration 100 nM)
2 |  |  |  | 0.025 nM |  | antibody 3hu (VHH, Humanized nanobody; also called humanized antibody 3) VHH: EVQLVESGGGLVQPGGSLRLSCAASGRDFLTYGMGWFRQAPGKGREFVASINWSGSMTYYADSVKGRFTISRDNAKNTVYLQMNSLKAEDTAVYICAARRGAVTYASSNEYEHWGQGTLVTVSS | 
3 | 0.26 nM | 0.034 nM | 2.8 nM | 0.16 nM | 1.5 nM | antibody 4 (VHH) VHH: EVQLVESGGGLVQAGDSLRLSCTASGRDFLTYGMGWFRQAPGKEREFVASINWSGSMTYYADSVKGRFTISRDNAKNTVYLQMNSLKPGDTAVYICAARRGAVTYASSNEYEHWGQGTQVTVSS | no binding (tested: initial concentration 100 nM)

The next lines start with the binder.

Row | Binder | IC50 (nM), NFAT-luciferase reporter gene assay [1] | EC50 [2] | IC50 [3] | EC50 [4] | IC50 [6] | binding result [5]
4 | antibody 1 (VHH, expressed in mammalian cells) VHH: QVQLVESGGGLVQAGGSLRLSCAASGRSFSSSGMGWFRQAPGKDREFVATINSSGGDTYYRDSVEGRFTTSRDNAKNTMSLQMNDLKPEDTAVYYCAAKEGGGPSSIPAIYDYWGQGTQVTVSS | 0.378 nM | 0.133 nM | 4.2 nM | 0.041 nM | 2.6 nM | no binding (tested: initial concentration 100 nM)
5 | antibody 2 (VHH) VHH: QVQLVESGGGLVQPGGSLSLSCVASGFTFSSYAMRWVRQAPGKEPEWVAGINTGSEIVVYANSVRGRFAISRDNARDTLFLQMNSLKPEDTAVYYCATGLVSAEHDGIWGQGTQVTVSS | 0.2 nM | 0.136 nM | 2.7 nM | 0.14 nM | 1.5 nM | no binding (tested: initial concentration 100 nM)
6 | antibody 3 (VHH) VHH: EVQLVESGGGSVQTGGSLRLSCVASGRDFLTYGMGWFRQAPGKEREFVASINWSGSMTYYADSVKGRFTISRDNAKNTVYLQMNSLKPGDTAVYICAARRGAVTYASSNEYEHWGQGTQVTVSS | 0.211 nM | 0.04 nM | 1.1 nM | 0.025 nM | 5.2 nM | no binding (tested: initial concentration 100 nM)
